Key:
[1] = target: Abz-1.Naph-Val-Ala-Nle-Ser-Tyr(NO2)-Asp-NH2
[2] = target: Abz-2.Naph-Val-Ala-Nle-Ser-Tyr(NO2)-Asp-NH2
[3] = target: Abz-2Nal-Ala-hLeu-Ser-Tyr(NO2)-Asp-NH2
[4] = target: Abz-3.Pyr-Val-Ala-Nle-Ser-Tyr(NO2)-Asp-NH2
[5] = target: Abz-3pyr-Ala-hLeu-Ser-Tyr(NO2)-Asp-NH2
[6] = target: Abz-ACH-Ala-hLeu-Ser-Tyr(NO2)-Asp-NH2
[7] = target: Abz-Ala-Nle-Ser-Tyr(NO2)-Asp-NH2
[8] = target: Abz-Bip-Ala-hLeu-3pyr-Tyr(NO2)-Asp-NH2
[9] = target: Abz-Bip-Ala-hLeu-Abu-Tyr(NO2)-Asp-NH2
[10] = target: Abz-Bip-Ala-hLeu-Asp-Tyr(NO2)-Asp-NH2
[11] = target: Abz-Bip-Ala-hLeu-Bu^tGly-Tyr(NO2)-Asp-NH2
[12] = target: Abz-Bip-Ala-hLeu-Cha-Tyr(NO2)-Asp-NH2
[13] = target: Abz-Bip-Ala-hLeu-Hyp-Tyr(NO2)-Asp-NH2
[14] = target: Abz-Bip-Ala-hLeu-Leu-Tyr(NO2)-Asp-NH2
[15] = target: Abz-Bip-Ala-hLeu-Lys-Tyr(NO2)-Asp-NH2
[16] = target: Abz-Bip-Ala-hLeu-Met(O)-Tyr(NO2)-Asp-NH2
[17] = target: Abz-Bip-Ala-hLeu-Ser-Tyr(NO2)-Asp-NH2
[18] = target: Abz-Bip-Ala-hLeu-Thr-Tyr(NO2)-Asp-NH2
[19] = target: Abz-Bip-Ala-hLeu-Tyr-Tyr(NO2)-Asp-NH2
[20] = target: Abz-Bip-Val-Ala-Nle-Ser-Tyr(NO2)-Asp-NH2
[21] = target: Abz-Cha-Ala-hLeu-Ser-Tyr(NO2)-Asp-NH2
[22] = target: Abz-Cmpi-Nle-Ser-Tyr(NO2)-ASP-NH2
[23] = target: Abz-DVal-Ala-hLeu-Ser-Tyr(NO2)-Asp-NH2
[24] = target: Abz-Deg-Ala-Nle-Ser-Tyr(NO2)-Asp-NH2
[25] = target: Abz-Gln-Ala-hLeu-Ser-Tyr(NO2)-Asp-NH2
[26] = target: Abz-Glu-Val-Ala-Nle-Ser-Tyr(NO2)-Asp-NH2
[27] = target: Abz-Hyp-Val-Ala-Nle-Ser-Tyr(NO2)-Asp-NH2
[28] = target: Abz-Leu-Ala-hLeu-Ser-Tyr(NO2)-Asp-NH2
[29] = target: Abz-Lys-Ala-hLeu-Ser-Tyr(NO2)-Asp-NH2
[30] = target: Abz-Lys-Val-Ala-Nle-Ser-Tyr(NO2)-Asp-NH2
[31] = target: Abz-Met(O)-Ala-hLeu-Ser-Tyr(NO2)-Asp-NH2
[32] = target: Abz-Nle-Ser-Tyr(NO2)-Asp-NH2
[33] = target: Abz-Phe-Val-Ala-Nle-Ser-Tyr(NO2)-Asp-NH2
[34] = target: Abz-Tic-Ala-hLeu-Ser-Tyr(NO2)-Asp-NH2
[35] = target: Abz-Val-(NMe)Ala-Nle-Ser-Tyr(NO2)-ASP-NH2
[36] = target: Abz-Val-2Nal-hLeu-Ser-Tyr(NO2)-Asp-NH2
[37] = target: Abz-Val-3pyr-hLeu-Ser-Tyr(NO2)-Asp-NH2
[38] = target: Abz-Val-ACH-hLeu-Ser-Tyr(NO2)-Asp-NH2
[39] = target: Abz-Val-ACP-hLeu-Ser-Tyr(NO2)-Asp-NH2
[40] = target: Abz-Val-Aib-Nle-Ser-Tyr(NO2)-Asp-NH2
[41] = target: Abz-Val-Ala-(NMe)Nle-Ser-Tyr(NO2)-Asp-NH2
[42] = target: Abz-Val-Ala-3pyr-Ser-Tyr(NO2)-Asp-NH2
[43] = target: Abz-Val-Ala-ACH-Ser-Tyr(NO2)-Asp-NH2
[44] = target: Abz-Val-Ala-ACP-Ser-Tyr(NO2)-Asp-NH2
[45] = target: Abz-Val-Ala-Aib-Ser-Tyr(NO2)-Asp-NH2
[46] = target: Abz-Val-Ala-Cha-Ser-Tyr(NO2)-Asp-NH2
[47] = target: Abz-Val-Ala-DNle-Ser-Tyr(NO2)-Asp-NH2
[48] = target: Abz-Val-Ala-Gln-Ser-Tyr(NO2)-Asp-NH2
[49] = target: Abz-Val-Ala-His-Ser-Tyr(NO2)-Aso-NH2
[50] = target: Abz-Val-Ala-Hyp-Ser-Tyr(NO2)-Asp-NH2
[51] = target: Abz-Val-Ala-Lys-Ser-Tyr(NO2)-Asp-NH2
[52] = target: Abz-Val-Ala-Nle-Ser-Ala-Asp-NH2
[53] = target: Abz-Val-Ala-Nle-Ser-Lys-Asp-NH2
[54] = target: Abz-Val-Ala-Nle-Ser-NH2
[55] = target: Abz-Val-Ala-Nle-Ser-Phe-Asp-NH2
[56] = target: Abz-Val-Ala-Nle-Ser-Tyr(NO2)-Asp-NH2
[57] = target: Abz-Val-Ala-Nle-Ser-Tyr(NO2)-NH2
[58] = target: Abz-Val-Ala-Nle-Ser-Tyr-Asp-NH2
[59] = target: Abz-Val-Ala-Nle-Ser-eAHA-Asp-NH2
[60] = target: Abz-Val-Ala-Thr-Ser-Tyr(NO2)-Asp-NH2
[61] = target: Abz-Val-Ala-hLeu-Ser-Tyr(NO2)-Asp-NH2
[62] = target: Abz-Val-Cha-hLeu-Ser-Tyr(NO2)-Asp-NH2
[63] = target: Abz-Val-DAla-hLeu-Ser-Tyr(NO2)-Asp-NH2
[64] = target: Abz-Val-DGln-hLeu-Ser-Tyr(NO2)-Asp-NH2
[65] = target: Abz-Val-DLys-hLeu-Ser-Tyr(NO2)-Asp-NH2
[66] = target: Abz-Val-Lys-hLeu-Ser-Tyr(NO2)-Asp-NH2
[67] = target: Abz-Val-Met(O)-hLeu-Ser-Tyr(NO2)-Asp-NH2
[68] = target: Abz-Val-Tic-hLeu-Ser-Tyr(NO2)-Asp-NH2
[69] = target: Abz-p.Aba-Nle-Ser-Tyr(NO2)-Asp-NH2
[70] = target: Ac-Val-Ala-Nie-Ser-Tyr(NO2)-Asp-NH2
[71] = target: Ac-Val-Ala-Nle-Ser-Tyr(NO2)-NH2
[72] = target: Bz(2-carboxy)-Val-Ala-Nle-Ser-Tyr(NO2)-NH2
[73] = target: Bz-Val-Ala-Nle-Ser-Tyr(NO2)-NH2
[74] = target: Bz-Val-Ala-Nle-Ser-Tyr(NO2)-NH2 (second printing, row r51)
[75] = target: Bz-Val-Ala-Statine-Ser-eAha-NH2
[76] = target: Chex-Val-Ala-Nle-Ser-Tyr(NO2)-NH2
[77] = target: H-Ala-Nle-Ser-Tyr(NO2)-ASP-NH2
[78] = target: H-Ala-Nle-Ser-Tyr(NO2)-Asp-NR2
[79] = target: H-Val-Ala-Nle-Ser-Tyr(NO2)-NH2
[80] = target: H-Val-Ala-Nle-Ser-TyrNO2-ASp-NH2
[81] = target: Piv-Val-Ala-Nle-Ser-Tyr(NO2)-NH2
[82] = target: n-Bu-Val-Ala-Nle-Ser-Tyr(NO2)-NH2
[83] = target: nBu-D.Ser-D.Nle-D.Ala-D.Val-p.Aba-NH2

B1: Der pI (protein)
chain: TNACSINGNAPAEIDLRQMRTVTPIRMQGGCGSCWAFSGVAATESAYLAYRNQSLDLAEQELVDCASQHGCHGDTIPRGIEYIQHNGVVQESYYRYVAREQSCRRPNAQRFGISNYCQIYPPNVNKIREALAQTHSAIAVIIGIKDLDAFRHYDGRTIIQRDNGYQPNYHAVNIVGYSNAQGVDYWIVRNSWDTNWGDNGYGYFAANIDLMMIEEYPYVVIL
B1 was tested, and the Measured Km [1] was 17 µM, the “Measured Km (µM)” value [2] was “NM” and the Measured Km [3] was 15 µM. The “Measured Km (µM)” value [4] was “NM”, the Measured Km [5] was greater than 10 µM and the “Measured Km (µM)” value [6] was “NS”. The “Measured Km (µM)” value [7] was “NM”, the Measured Km [8] was 4 µM and the Measured Km [9] was 1.7 µM. It also gave a Measured Km [10] of 5 µM, a Measured Km [11] of 4 µM and a Measured Km [12] of 2.5 µM. The Measured Km [13] was 4 µM, the Measured Km [14] was 3.7 µM and the Measured Km [15] was 2 µM. The Measured Km [16] was 5 µM, the Measured Km [17] was 2.5 µM and the Measured Km [18] was 2.5 µM. It also gave a Measured Km [19] of 3 µM, a Measured Km [20] of 10 µM and a Measured Km [21] of 9 µM. The “Measured Km (µM)” value [22] was “NS”, the “Measured Km (µM)” value [23] was “NS” and the “Measured Km (µM)” value [24] was “NS”. The Measured Km [25] was 12 µM, the Measured Km [26] was 20 µM and the “Measured Km (µM)” value [27] was “NS”. The Measured Km [28] was 18 µM, the Measured Km [29] was greater than 15 µM and the Measured Km [30] was 15 µM. The Measured Km [31] was 20 µM, the “Measured Km (µM)” value [32] was “NS” and the “Measured Km (µM)” value [33] was “NM”. The “Measured Km (µM)” value [34] was “NS”, the “Measured Km (µM)” value [35] was “NS” and the “Measured Km (µM)” value [36] was “NS”. The “Measured Km (µM)” value [37] was “NS”, the “Measured Km (µM)” value [38] was “NS” and the “Measured Km (µM)” value [39] was “NS”. The “Measured Km (µM)” value [40] was “NS”, the “Measured Km (µM)” value [41] was “NS” and the Measured Km [42] was 10 µM. The “Measured Km (µM)” value [43] was “NS”, the “Measured Km (µM)” value [44] was “NS” and the “Measured Km (µM)” value [45] was “NS”. For the same protein, the Measured Km [46] was 5 µM, the “Measured Km (µM)” value [47] was “NS” and the Measured Km [48] was 6 µM. For the same protein, the Measured Km [49] was greater than 20 µM, the “Measured Km (µM)” value [50] was “NS” and the Measured Km [51] was 14 µM. The “Measured Km (µM)” value [52] was “NM”, the “Measured Km (µM)” value [53] was “NM” and the “Measured Km (µM)” value [54] was “NM”. The “Measured Km (µM)” value [55] was “NM”, the Measured Km [56] was 12 µM and the kcat/Km [56] was 35000 M⁻¹ s⁻¹. For the same protein, the “Measured Km (µM)” value [57] was “NM”, the “cleavage rate (rank order)” value [57] was “Bz>n-But>Piv>Bz(2-carboxy)>Abz” and the “Measured Km (µM)” value [58] was “NM”. For the same protein, the “Measured Km (µM)” value [59] was “NM”, the Measured Km [60] was 6 µM and the Measured Km [61] was 4 µM. The “Measured Km (µM)” value [62] was “NS”, the “Measured Km (µM)” value [63] was “NS” and the “Measured Km (µM)” value [64] was “NS”. The “Measured Km (µM)” value [65] was “NS”, the Measured Km [66] was 35 µM and the Measured Km [67] was 35 µM. The “Measured Km (µM)” value [68] was “NS”, the “Measured Km (µM)” value [69] was “NS” and the “Measured Km (µM)” value [70] was “NS”. The “Measured Km (µM)” value [71] was “NS”, the “Measured Km (µM)” value [72] was “NM^a” and the “cleavage rate (rank order)” value [72] was “Bz>n-But>Piv>Bz(2-carboxy)>Abz”. The “Measured Km (µM)” value [73] was “NM^a”, the “cleavage rate (rank order)” value [73] was “Bz>n-But>Piv>Bz(2-carboxy)>Abz” and the “Measured Km (µM)” value [74] was “NM^a”. The “Measured Km (µM)” value [75] was “NS”, the “Measured Km (µM)” value [76] was “NM^a” and the “Measured Km (µM)” value [77] was “NS”. For the same protein, the “Measured Km (µM)” value [78] was “NS”, the “Measured Km (µM)” value [79] was “NS” and the “Measured Km (µM)” value [80] was “NS”. The “Measured Km (µM)” value [81] was “NM^a”, the “cleavage rate (rank order)” value [81] was “Bz>n-But>Piv>Bz(2-carboxy)>Abz” and the “Measured Km (µM)” value [82] was “NM^a”. The “cleavage rate (rank order)” value [82] was “Bz>n-But>Piv>Bz(2-carboxy)>Abz” and the “Measured Km (µM)” value [83] was “NS”.

— patent publication US20030092067A1
